Positions count from the first letter of the chain named. Names may count otherwise. Where two headings read alike, the source gives them in different places.

From patent US20200199241A1 (Chugai, published 2020) come the findings set out here.

The target in test [1] is T1, mouse FcγRI (mouse, UniProt P26151 25-297).
T1 construct: bought; also called mFcgRI; mFcgR 1
T1 sequence (looked up): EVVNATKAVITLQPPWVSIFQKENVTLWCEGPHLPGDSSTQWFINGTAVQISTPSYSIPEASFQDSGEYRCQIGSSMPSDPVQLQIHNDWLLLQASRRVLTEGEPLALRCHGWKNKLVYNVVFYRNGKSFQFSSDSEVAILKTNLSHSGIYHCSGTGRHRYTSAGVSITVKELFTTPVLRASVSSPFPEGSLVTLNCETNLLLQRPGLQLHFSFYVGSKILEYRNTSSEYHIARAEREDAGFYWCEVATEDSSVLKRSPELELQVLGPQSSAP
In words: SPR, antibody captured by Protein L, mouse FcγR as analyte, pH 7.4, 25 C. For orientation: In SPR one partner is held on a chip, and binding of the other changes the refractive index at the surface.

The target of test [2] is T2, mouse FcγRIIb (mouse, UniProt P08101 30-207, limits assumed).
T2 construct: bought; also called mFcgRIIb; mFcgR IIb
T2 sequence (looked up): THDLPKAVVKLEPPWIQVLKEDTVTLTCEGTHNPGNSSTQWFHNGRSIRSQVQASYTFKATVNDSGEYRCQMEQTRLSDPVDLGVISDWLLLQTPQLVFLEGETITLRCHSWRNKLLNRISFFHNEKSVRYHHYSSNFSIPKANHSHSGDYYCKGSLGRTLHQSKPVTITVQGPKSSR
The test is described as above.

The target in test [3] is T3, mouse FcγRIII (mouse, UniProt P08508 31-215).
T3 construct: bought; also called mFcgRIII; mFcgR III
T3 sequence (looked up): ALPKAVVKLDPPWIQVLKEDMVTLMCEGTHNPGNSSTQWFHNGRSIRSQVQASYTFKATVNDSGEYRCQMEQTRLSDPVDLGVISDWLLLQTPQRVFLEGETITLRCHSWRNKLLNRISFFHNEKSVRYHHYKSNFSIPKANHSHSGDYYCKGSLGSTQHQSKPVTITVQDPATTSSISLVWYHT
The description is as above.

For test [4], the target named is T4, mouse FcγRIV (mouse, UniProt A0A0B4J1G0 21-203).
T4 construct: bought; also called mFcgRIV; mFcgR IV; the vendor's purification tag not given
T4 sequence: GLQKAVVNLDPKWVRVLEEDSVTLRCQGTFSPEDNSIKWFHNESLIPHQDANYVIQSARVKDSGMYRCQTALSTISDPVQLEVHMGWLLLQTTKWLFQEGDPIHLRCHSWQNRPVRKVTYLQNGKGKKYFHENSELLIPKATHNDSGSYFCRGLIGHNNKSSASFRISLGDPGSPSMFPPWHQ
The test is described as above.

Test [5] concerns the target T5, human FcγRIIb (human, UniProt P31994 43-217, limits assumed).
T5 construct: also called FcγIIB
T5 sequence: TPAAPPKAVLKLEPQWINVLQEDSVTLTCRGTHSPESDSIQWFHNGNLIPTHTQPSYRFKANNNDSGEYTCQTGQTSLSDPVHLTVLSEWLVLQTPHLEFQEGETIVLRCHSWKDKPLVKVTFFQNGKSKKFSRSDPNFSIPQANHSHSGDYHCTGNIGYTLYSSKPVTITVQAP
The test can be described thus: SPR (Biacore); ratio against IgG1.

The target of test [6] is T5, human FcγRIIb. The test can be described thus: SPR (Biacore), antibody captured, FcγR as analyte.
For test [7], the target named is T5, human FcγRIIb. In words: SPR (Biacore); ratio against IgG1. The source holds these as a separate data set.
In test [8] the target is T5, human FcγRIIb. In words: SPR (Biacore), antibody captured, FcγR as analyte. The source holds these as a separate data set.
Test [9] concerns the target T6, human FcγRIIb (human, UniProt P31994 43-217, limits assumed).
T6 construct: also called hFcgRIIb; FcγIIB
T6 sequence: T5 sequence
The test can be described thus: SPR (Biacore), amount of FcγRIIb bound to the captured antibody, relative to GpH7-B3/GpL16-k0 = 100.

Test [10] addresses T7, human FcRn (soluble human FcRn complexed with β2-microglobulin) (human, UniProt P61769 21-119, limits assumed).
T7 construct: also called hFcRn
In words: SPR, antibody captured by Protein L, human FcRn as analyte, pH 7.0, 25 C.

For test [11], the target named is T1, mouse FcγRI. In words: SPR, antibody captured by Protein L, mouse FcγR as analyte, pH 7.4, 25 C. This is another data set of the same source.
Test [12] deals with T2, mouse FcγRIIb. The test is described as above. This is another data set of the same source.
The target of test [13] is T3, mouse FcγRIII. The test is described as above. This is another data set of the same source.
Test [14] addresses T4, mouse FcγRIV. The test is described as above. This is another data set of the same source.
The target of test [15] is T7, human FcRn (soluble human FcRn …). The test can be described thus: SPR, antibody captured by Protein L, human FcRn as analyte, pH 7.0, 25 C. This is another data set of the same source.
The target in test [16] is T6, human FcγRIIb. In words: SPR, antibody captured by Protein L, human FcγR as analyte, pH 7.4, 25 C.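 Note: biacore T100 or T200 with Protein L amine-coupled on a CM4 chip, FcγRs diluted in ACES saline with polysorbate 20, buffer-only injection as blank.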
Another test concerns the target T8, human FcγRIIIa(V) (human, UniProt P08637 17-208, limits assumed).
T8 construct: also called hFcgRIIIa(V); allotype V158
Described as above.

A further test deals with T9, human FcγRIa (human, UniProt P12314 16-292, limits assumed).
T9 construct: also called hFcgRIa; hFcgRI
T9 sequence (P12314 16-292 limits assumed): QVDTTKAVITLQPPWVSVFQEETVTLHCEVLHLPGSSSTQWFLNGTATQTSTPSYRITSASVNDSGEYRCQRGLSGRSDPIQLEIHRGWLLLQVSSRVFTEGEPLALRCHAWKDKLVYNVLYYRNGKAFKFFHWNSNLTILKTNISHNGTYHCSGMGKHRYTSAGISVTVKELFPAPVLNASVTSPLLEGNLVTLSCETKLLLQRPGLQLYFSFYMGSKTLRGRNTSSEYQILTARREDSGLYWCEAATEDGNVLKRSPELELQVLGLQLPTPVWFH
The description is as above.

The next test addresses T10, human FcγRIIa(R) (human, UniProt P12318 36-217).
T10 construct: also called hFcgRIIa(R); FcγRIIa type R
T10 chain: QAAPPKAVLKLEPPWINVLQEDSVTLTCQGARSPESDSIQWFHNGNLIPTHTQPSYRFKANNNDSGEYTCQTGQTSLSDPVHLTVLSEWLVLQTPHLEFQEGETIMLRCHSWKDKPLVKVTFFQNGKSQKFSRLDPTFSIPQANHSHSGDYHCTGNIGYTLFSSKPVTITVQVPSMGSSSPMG
Described as above.

For the next test, the target named is T11, human FcγRIIa(H) (human, UniProt P12318 36-217).
T11 construct: also called hFcgRIIa(H); FcγRIIa type H
T11 sequence: T10 chain with R133H
The test is described as above.

T7 sequence (chain, as listed by the source limits assumed, chain 1 of 2): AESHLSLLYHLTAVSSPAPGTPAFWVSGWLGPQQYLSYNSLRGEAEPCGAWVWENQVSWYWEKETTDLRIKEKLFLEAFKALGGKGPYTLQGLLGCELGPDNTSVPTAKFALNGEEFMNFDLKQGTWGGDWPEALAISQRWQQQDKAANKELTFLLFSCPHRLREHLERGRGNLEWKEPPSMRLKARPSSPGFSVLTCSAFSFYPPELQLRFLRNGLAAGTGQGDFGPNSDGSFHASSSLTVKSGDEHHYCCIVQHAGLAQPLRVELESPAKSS
T7 sequence (P61769 21-119 limits assumed, chain 2 of 2): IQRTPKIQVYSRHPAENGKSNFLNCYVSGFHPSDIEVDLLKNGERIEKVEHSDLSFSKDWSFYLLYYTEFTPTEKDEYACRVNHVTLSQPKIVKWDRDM
T8 sequence (P08637 other isoform, or with tags, fused parts or gaps limits assumed): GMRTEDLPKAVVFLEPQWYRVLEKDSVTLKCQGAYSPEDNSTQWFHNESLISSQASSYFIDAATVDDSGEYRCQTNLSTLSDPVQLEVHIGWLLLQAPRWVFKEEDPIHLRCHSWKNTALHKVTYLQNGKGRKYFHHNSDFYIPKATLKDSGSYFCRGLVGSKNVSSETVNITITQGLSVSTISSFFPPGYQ

B1: antibody with mPM1H-mIgG1-mF38 heavy chain (antibody)
heavy: DVQLQESGPVLVKPSQSLSLTCTVTGYSITSDHAWSWIRQFPGNKLEWMGYISYSGITTYNPSLKSRISITRDTSKNQFFLQLNSVTTGDTSTYYCARSLARTTAMDYWGQGTSVTVSSAKTTPPSVYPLAPGSAAQTNSMVTLGCLVKGYFPEPVTVTWNSGSLSSGVHTFPAVLQSDLYTLSSSVTVPSSTWPSETVTCNVAHPASSTKVDKKIVPRDCGCKPCICTVPEVSSVFIFPPKPKDVLYITLEPKVTCVVVDISKDDPEVQFSWFVDDVEVHTAQTQPREEQFNSTFRSVSELPIMHQDWLNGKEFKCRVNSAAFPAPIEKTISKTKGRPKAPQVYTIPPPKEQMAKDKVSLTCMITDFFPEDITVEWQWNGQPAENYKNTQPIMDTDGSYFVYSKLNVQKSNWEAGNTFTCSVLHEGLHWHHTEKSLSHSPGK
light: not shown
notes: T252Y/T256E/N434W; also called mPM1-mIgG1-mF38; copies: 2 + 2
Consider B1, for which the “BINDING AMOUNT (RU)” value with mouse FcγRI [1] was -2 RU; in the test with mouse FcγRIIb [2], 161 RU; with mouse FcγRIII [3], 403 RU; with mouse FcγRIV [4], -4.1 RU.

B2: antibody with mPM1H-mIgG1-mF39 heavy chain (antibody)
heavy: B1 heavy with P231K, S235K, H429K, W430N
light: not shown
notes: P235K/S239K/T252Y/T256E/H433K; also called mPM1-mIgG1-mF39; copies: 2 + 2
Regarding B2, the “BINDING AMOUNT (RU)” value was -3.1 RU in the test with mouse FcγRI [1], -3 RU with mouse FcγRIIb [2], -8.4 RU in the test with mouse FcγRIII [3] and -3.8 RU in the test with mouse FcγRIV [4].

B3: antibody with mPM1H-mIgG1-mF40 heavy chain (antibody)
heavy: B1 heavy with P231K, S235K
light: not shown
notes: P235K/S239K/T252Y/T256E/N434W; also called mPM1-mIgG1-mF40; copies: 2 + 2
Consider B3, for which the “BINDING AMOUNT (RU)” value is -3 RU with mouse FcγRI [1], -5.2 RU in the test with mouse FcγRIIb [2], -18.7 RU with mouse FcγRIII [3] and -8.9 RU in the test with mouse FcγRIV [4].

B4: IgG1-v2 (antibody)
heavy: not shown
light: DIQMTQSPSSLSASVGDRVTITCRASQDISSYLNWYQQKPGKAPKLLIYYTSRLHSGVPSRFSGSGSGTDFTFTISSLQPEDIATYYCQQGNTLPYTFGQGTKVEIK
notes: IL6R-G1d with L328E (EU numbering); also called L328E
With B4, the “relative KD for FcγRIIb (KD for IgG1/KD for each variant)” value (from here on “relative KD for FcγRIIb”) in the test with human FcγRIIb [5] was 2.3. For the same molecule, the Kd (usually the concentration at which binding is half-saturated) with human FcγRIIb [6] is 2300 nM.

B5: IgG1-v4 (antibody)
heavy: not shown
light: B4 light
notes: IL6R-G1d with P238D/L328E (EU numbering); also called IL6R-G1d-v4; P238D/L328E
On to B5, for which the “relative KD for FcγRIIb” value with human FcγRIIb [5] is 0.47. Also, the Kd with human FcγRIIb [6] was determined as 11000 nM.

B6: IgG1-v3 (antibody)
heavy: not shown
light: B4 light
notes: IL6R-G1d with S267E/L328F (EU numbering); also called S267E/L328F
As to B6, in the test with human FcγRIIb [7], the “relative KD for FcγRIIb” value came to 408. In addition, in the test with human FcγRIIb [8], the Kd amounted to 13 nM.

B7: G237F (antibody)
heavy: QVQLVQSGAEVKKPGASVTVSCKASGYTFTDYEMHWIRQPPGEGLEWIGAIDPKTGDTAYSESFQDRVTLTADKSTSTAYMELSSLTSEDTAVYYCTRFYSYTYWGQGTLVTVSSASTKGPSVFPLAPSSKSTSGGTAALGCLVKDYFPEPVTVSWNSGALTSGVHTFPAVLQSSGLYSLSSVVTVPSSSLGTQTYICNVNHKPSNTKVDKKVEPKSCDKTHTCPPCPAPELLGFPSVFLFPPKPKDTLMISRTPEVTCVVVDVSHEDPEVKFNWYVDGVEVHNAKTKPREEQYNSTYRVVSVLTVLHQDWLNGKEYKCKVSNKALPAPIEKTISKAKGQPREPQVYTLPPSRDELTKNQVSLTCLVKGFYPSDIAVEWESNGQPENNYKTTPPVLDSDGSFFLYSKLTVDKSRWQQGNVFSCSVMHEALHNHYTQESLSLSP
light: DIVMTQSPLSLPVTPGEPASISCQASESLVHSNRNTYLHWYLQKPGQSPQLLIYKVSNRFSGVPDRFSGSGSGTDFTLKISRVEAEDVGVYYCSQNTHVPPTFGQGTKVEIERTVAAPSVFIFPPSDEQLKSGTASVVCLLNNFYPREAKVQWKVDNALQSGNSQESVTEQDSKDSTYSLSSTLTLSKADYEKHKVYACEVTHQGLSSPVTKSFNRGEC
notes: also called GpH7-B3 variant G237F/GpL16-k0; copies: 2 + 2
For B7, the binding result with human FcγRIIb [9] was “binds”.

B8: S239D (antibody)
heavy: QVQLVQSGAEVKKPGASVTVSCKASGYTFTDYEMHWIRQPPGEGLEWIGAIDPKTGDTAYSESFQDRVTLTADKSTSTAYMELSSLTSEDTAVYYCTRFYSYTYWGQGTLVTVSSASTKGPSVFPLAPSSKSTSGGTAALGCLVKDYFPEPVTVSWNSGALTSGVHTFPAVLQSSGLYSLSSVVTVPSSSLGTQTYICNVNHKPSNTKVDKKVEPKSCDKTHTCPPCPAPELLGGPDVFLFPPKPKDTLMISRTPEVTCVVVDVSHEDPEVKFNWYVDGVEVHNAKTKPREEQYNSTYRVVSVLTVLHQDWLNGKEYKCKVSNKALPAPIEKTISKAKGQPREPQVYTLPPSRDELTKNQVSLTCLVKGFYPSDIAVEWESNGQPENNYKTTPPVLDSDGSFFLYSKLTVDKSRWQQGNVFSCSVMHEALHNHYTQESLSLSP
light: B7 light
notes: also called GpH7-B3 variant S239D/GpL16-k0; copies: 2 + 2
Consider B8, for which the binding result with human FcγRIIb [9] is on record as “binds”.

B9: G237W (antibody)
heavy: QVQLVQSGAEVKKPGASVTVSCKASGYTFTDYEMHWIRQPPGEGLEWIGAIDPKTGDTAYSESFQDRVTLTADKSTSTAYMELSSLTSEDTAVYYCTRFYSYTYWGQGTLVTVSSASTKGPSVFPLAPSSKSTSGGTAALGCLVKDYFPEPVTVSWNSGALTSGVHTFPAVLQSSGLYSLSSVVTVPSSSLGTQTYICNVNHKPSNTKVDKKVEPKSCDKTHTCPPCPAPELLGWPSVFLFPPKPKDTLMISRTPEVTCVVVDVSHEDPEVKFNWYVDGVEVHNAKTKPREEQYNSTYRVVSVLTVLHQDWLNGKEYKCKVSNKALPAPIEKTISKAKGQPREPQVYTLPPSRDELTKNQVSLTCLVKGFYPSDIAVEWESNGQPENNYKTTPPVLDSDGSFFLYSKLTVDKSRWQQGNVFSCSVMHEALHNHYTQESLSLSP
light: B7 light
notes: also called GpH7-B3 variant G237W/GpL16-k0; copies: 2 + 2
B9: the binding result with human FcγRIIb [9] is listed as “binds”.

B10: L234Y (antibody)
heavy: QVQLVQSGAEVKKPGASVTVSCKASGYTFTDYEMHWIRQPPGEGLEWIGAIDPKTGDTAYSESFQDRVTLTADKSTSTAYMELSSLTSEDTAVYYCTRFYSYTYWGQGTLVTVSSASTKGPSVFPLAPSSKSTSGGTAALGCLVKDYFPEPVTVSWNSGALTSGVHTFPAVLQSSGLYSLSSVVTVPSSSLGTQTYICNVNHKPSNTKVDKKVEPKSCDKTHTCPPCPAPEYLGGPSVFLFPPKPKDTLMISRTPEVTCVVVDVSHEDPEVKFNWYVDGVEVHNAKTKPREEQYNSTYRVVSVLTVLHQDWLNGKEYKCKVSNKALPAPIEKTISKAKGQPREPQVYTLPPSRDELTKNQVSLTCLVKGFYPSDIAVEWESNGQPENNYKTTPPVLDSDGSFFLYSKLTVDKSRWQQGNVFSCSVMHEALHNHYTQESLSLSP
light: B7 light
notes: also called GpH7-B3 variant L234Y/GpL16-k0; copies: 2 + 2
Regarding B10, the binding result with human FcγRIIb [9] is recorded as “binds”.

B11: antibody with VH3-IgG1-F1009 heavy chain and L(WT)-CK light chain (antibody)
heavy: QVQLQESGPGLVKPSETLSLTCAVSGHSISHDHAWSWVRQPPGEGLEWIGFISYSGITNYNPSLQGRVTISRDNSKNTLYLQMNSLRAEDTAVYYCARSLARTTAMDYWGEGTLVTVSSASTKGPSVFPLAPSSKSTSGGTAALGCLVKDYFPEPVTVSWNSGALTSGVHTFPAVLQSSGLYSLSSVVTVPSSSLGTQTYICNVNHKPSNTKVDKKVEPKSCDKTHTCPPCPAPELRGGPKVFLFPPKPKDVLYISRTPEVTCVVVDVSHEDPEVKFNWYVDGVEVHNAKTKPREEQYNSTYRVVSVLQPLHADWLNGKEYKCKVSNKALPAPIEKTISKAKGQPREPQVYTLPPSRDELTKNQVSLTCLVKGFYPSDIAVEWESNGQPENNYKTTPPVLDSDGSFFLYSKLTVDKSRWQQGNVFSCSVMHEALHYHVTQKSLSLSP
light: not shown
notes: L235R/S239K/T250V/M252Y/T307Q/V308P/Q311A/N434Y/Y436V; copies: 2 + 2
Turning to B11, the Kd in test [10] and in test [15] was 12 nM each time. Further, the “BINDING AMOUNT (RU)” value was 0.6 RU in the test with mouse FcγRI [11]; -1.5 RU with mouse FcγRIIb [12]; -12.9 RU with mouse FcγRIII [13]; 7.2 RU with mouse FcγRIV [14]; 0.16 RU with human FcγRIIb [16]; 3.64 RU in the test with human FcγRIIIa(V). The figures for the “BINDING AMOUNT (RU)” value with human FcγRIa, with human FcγRIIa(R) and with human FcγRIIa(H) were 0.31 RU, -0.27 RU and -0.02 RU, respectively.

B12: antibody with VH3-IgG1-F1327 heavy chain and L(WT)-CK light chain (antibody)
heavy: B11 heavy with L236A, R237A, K241S, N299A
light: not shown
notes: L234A/L235A/N297A on VH3-IgG1-F947; copies: 2 + 2
B12: the Kd in test [15] was 14 nM. Also, the “BINDING AMOUNT (RU)” value was 0.74 RU in the test with human FcγRIIb [16]; -0.6 RU with human FcγRIIIa(V); 0.87 RU with human FcγRIa; -0.2 RU with human FcγRIIa(R); -1.14 RU in the test with human FcγRIIa(H).
